Fewer inactive variants are shown than the library holds.
B1: TPR 5TU (parent)
chain: GGAUCUUCUCGAUCUAACAAAAAAGACAAAUCUGCCACAAAGCUUGAGAGCAUCUUCGGAUGCAGAGGCGGCAGCCUUCGGUGGCGCGAUAGCGCCAACGUUCUCAACUAUGACACGCAAAACGCGUGCUCCGUUGAAUGGAGUUUAUCAUG

Variants of: B1
Experiment: polymerase ribozyme fitness, log enrichment relative to wild type (log ratio); higher = more active; in vitro selection for triplet polymerase activity
Summary of the method: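 Each subunit of a heterodimeric triplet polymerase ribozyme was mutagenized into a library by PCR, transcribed, and subjected to one round of in vitro selection, run in triplicate. Libraries were annealed with a biotinylated primer, the partner subunit and triplets, incubated frozen at −7 °C, and extended constructs were gel-excised, captured on streptavidin beads and recovered by RT-PCR. Input and output libraries were sequenced on Illumina, keeping genotypes with ≥10 input reads and ≥1 read per output. Fitness is log base 2 of genotype enrichment divided by wild-type enrichment, from inverse-variance-weighted replicate averages.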

Variant	polymerase ribozyme fitness (log ratio)
C63U C85U C95A	-0.621
C63G U78A C79U C85U A98G A106U U134C A142G U146A	≤ -4.2
U61A G94U A106G	-2.71
U61G A89U C95A C99A U109C G136A U148G C149A	≤ -4.2
G62U G86C C95G C132U	≤ -4.2
U61G A66C G133C	≤ -4.2
C63G U90A C99G U148A	≤ -4.2
A60U	-0.665
C63G C93A A98G C116U G140C	≤ -4.2
A64G A150U	-3.42
A60U G84U U102G	-4.18
A60U C87G	≤ -4.2
C63G A66G G71A G74U U135G G143C	≤ -4.2
U61C U82C C116U U134C	-2.24
C63A C87U G88A A115U	≤ -4.2
C63A	0.15
C63U	-0.0732
C63G	0.136
U61G G74U G83A	≤ -4.2
A60G G128U	-2.75
G62U C72G C93A	≤ -4.2
A64U A110G	≤ -4.2
U61G A66C A150G	≤ -4.2
A60G U104G G136U U144C	-3.29

Variant	polymerase ribozyme fitness (log ratio)
U61C G126A	-0.237
A60U A106G	-0.0172
G62A A64U C69U C76U G84A C105G C116G	≤ -4.2
U61A U90C C96A A115U G152U	≤ -4.2
U61A A91U	≤ -4.2
C63A A64C	-1.46
C63G G67C U135G	≤ -4.2
A60G G126A	1.03
A60U G80A C85A C93A	≤ -4.2
A64G A91C	≤ -4.2
C63U G141U	1.25
A60G G84A C118A	-0.875
A64C G83C A89U U134A G141A	≤ -4.2
U61A C85U A97C A120G	-3.26
A64G G68A	≤ -4.2
U61G A122C	-1.51
G62U A115C	-1.97
U61G C75G G88U A89U U101A G140C	≤ -4.2
U61A G143C	-2.62
A64G G67U G84U C103A G112C A115U U146C	≤ -4.2
A64C G88U A150C	≤ -4.2
U61G C99G A138G	≤ -4.2
U61C C76A	-2.59
U61A C87U U102C C103G U130C	≤ -4.2

Variant	polymerase ribozyme fitness (log ratio)
A60U C85G C96U C105U	≤ -4.2
C63U C69A C87A G140C	≤ -4.2
G62A A66G G86U A121G U127C	≤ -4.2
G62U U102A	-1.64
A64G G86U	≤ -4.2
C63G A64C C72U C95U C105G A120U G141U	≤ -4.2
C63A G92C	-1.03
U61A C105U	-1.02
C63U U102A U104G G124A	-2.05
U61A U101G	-1.11
C63U G68A	≤ -4.2
C63U C75U U82A	0.455
A60G U77G C87U C132G	≤ -4.2
C63G A110U G136U U148A	≤ -4.2
A60G G83A G86A A97C C125G C131G G136A G152U	≤ -4.2
C63A G117U A119C	0.257
C63G G133U	-4.14
U61A A97G G136A	-0.653
U61A C79G U82C C132G	≤ -4.2
G62A C87U A120G A142C	-3.11
U61A G86A A97U C99G A113U G152U	≤ -4.2
C63U C69A C85U A97C C118G G126C	-3.97
G62A U82C C95A U101C U148A	≤ -4.2
U61A A73G G80U	≤ -4.2

Variant	polymerase ribozyme fitness (log ratio)
A64G C75G G84U U127A A142U	≤ -4.2
A60G G80C G140A G141U	≤ -4.2
U61A U82A	-1.03
U61A G65A G81U C85U U102G	≤ -4.2
G62A G65A G117U U144A	-3.79
A60U G65C	-3.98
G62C G68U A89G C108A A113U	≤ -4.2
U61A G94A	-2.08
C63U C76A C103G U146G U148G	≤ -4.2
A60U C96U	-0.416
U61A G80A	-2.08
C63G U102G C105U	≤ -4.2
U61A C129U	-3.55
C63A A120U G124C	-2.49
C63G G68C	≤ -4.2
C63G G83A A98C U104A	-0.841
C63G C95A A110G A122U	-3.22
G62A C93G U130C	-3.01
U61A C96G G117A	-2.2
U61C A98U C103G A115G C131U	≤ -4.2
A60U C131A	-2.81
U61A C85A G141C	-2.36
G62C A106U C125U	-3.86
G62C C85A C99G U151G	≤ -4.2

Variant	polymerase ribozyme fitness (log ratio)
G62C C63A C116G	-1.77
U61G U101C	-2.61
G62A G70A G71A G80C C87U C108U	≤ -4.2
G62U C132A	≤ -4.2
A60G G71A G141U	≤ -4.2
C63U C85U A113U U146A	-3.03
A60G G70C A89C	-3.24
U61G G86A	-2.45
U61C A73U A91U	≤ -4.2
U61A A66C G74A U90G A91G G133U A138C	≤ -4.2
A60U C85U U148C	-3.17
C63U C96U A150G	-1.22
G62A U130G	-3.67
U61G G92A	≤ -4.2
A64C G71A A107G G141C	≤ -4.2
A64C G65A G84U C116G U139C	≤ -4.2
A60G U139C G141C U144A	-4.04
A60U U61A C69G C96U	≤ -4.2
A60G G117C G124U	0.122
A60G G92A C96U A121C	-2.75
A60G G81A A97U C99U	-1.35
U61G U82C A89U A120U U135A	-2.52
G62C C123A	-1.69
U61C G81C C95G C123U A142G	≤ -4.2

Variant	polymerase ribozyme fitness (log ratio)
A60U A91G G141A U145G	-3.98
A60U C85U G88U C99U	≤ -4.2
U61G C63A G71U G80A G94U C105G C116G U139A	≤ -4.2
U61A G84A	-1.38
U61A C87U G92A A106G A122U	-2.84
C63U G70A C85G A138C	≤ -4.2
A64G U82G A91U C95U A110U U111G	≤ -4.2
C63U A122C	-0.464
A60U A89C	-0.611
G62C G94C	-2.03
A60U G84A C116U	-1.05
C63G C76U	0.0444
A60U G136C U139G	-3.71
G62C C85A	-3.75
U61A G92U	-3.41
A60U U61A A142C	-3.49
A60G G70A C108G	≤ -4.2
U61A G84U C114U	-3.85
U61A U77A C95U A97C U139A A150G	≤ -4.2
C63U C85U C87U	-0.425
A60U C132U	-0.719
U61A C118A	-2
U61A A64G G140C U144C	≤ -4.2
U61A G140A	≤ -4.2

Variant	polymerase ribozyme fitness (log ratio)
U61G A64C C75G C93U	≤ -4.2
G62C A113U G117A A137C	≤ -4.2
A64C A107C C131A	≤ -4.2
C63U C93A C116G A142G	-3.41
C63G A73G	-0.51
C63U C95U	-0.692
A60U G84U C95G	0.318
A60U C79U G81U A91G C95G U102A	≤ -4.2
C63U C125U G133U	-3.67
A64C A73U G84A U102G C116A	≤ -4.2
C63A G92U C116U	-3.98
C63U C103G U146G	-2.3
U61C U104G G126C	-2.04
U61A A66U U82C G92C C95G	≤ -4.2
A64G G80U C85U C93U G94U C103U	-4.18
A60U A150C	-3.39
A60G U90G U145A	≤ -4.2
C63U U82G G126A G140A	-3.92
U61A G67A C76A G81A C85A	≤ -4.2
U61A C85U C87A C118G U134A	≤ -4.2
U61G U77G G92A C96A G143U	≤ -4.2
C63G G65C C93G A137C A142U	≤ -4.2
A60U C69A	-0.294

Reference: the RNAGym collection of RNA variant scans (doi:10.1073/pnas.2313332121)
